{"source": "paper PMC11949838", "about": "“FUT10 and FUT11 are protein O-fucosyltransferases that modify protein EMI domains” (Nature Chemical Biology, 2025)", "molecules": {"B1": {"name": "Multimerin-1 (MMRN1): FX KO (protein)", "parent chain": "MKGARLFVLLSSLWSGGIGLNNSKHSWTIPEDGNSQKTMPSASVPPNKIQSLQILPTTRVMSAEIATTPEARTSEDSLLKSTLPPSETSAPAEGVRNQTLTSTEKAEGVVKLQNLTLPTNASIKFNPGAESVVLSNSTLKFLQSFARKSNEQATSLNTVGGTGGIGGVGGTGGVGNRAPRETYLSRGDSSSSQRTDYQKSNFETTRGKNWCAYVHTRLSPTVILDNQVTYVPGGKGPCGWTGGSCPQRSQKISNPVYRMQHKIVTSLDWRCCPGYSGPKCQLRAQEQQSLIHTNQAESHTAVGRGVAEQQQQQGCGDPEVMQKMTDQVNYQAMKLTLLQKKIDNISLTVNDVRNTYSSLEGKVSEDKSREFQSLLKGLKSKSINVLIRDIVREQFKIFQNDMQETVAQLFKTVSSLSEDLESTRQIIQKVNESVVSIAAQQKFVLVQENRPTLTDIVELRNHIVNVRQEMTLTCEKPIKELEVKQTHLEGALEQEHSRSILYYESLNKTLSKLKEVHEQLLSTEQVSDQKNAPAAESVSNNVTEYMSTLHENIKKQSLMMLQMFEDLHIQESKINNLTVSLEMEKESLRGECEDMLSKCRNDFKFQLKDTEENLHVLNQTLAEVLFPMDNKMDKMSEQLNDLTYDMEILQPLLEQGASLRQTMTYEQPKEAIVIRKKIENLTSAVNSLNFIIKELTKRHNLLRNEVQGRDDALERRINEYALEMEDGLNKTMTIINNAIDFIQDNYALKETLSTIKDNSEIHHKCTSDMETILTFIPQFHRLNDSIQTLVNDNQRYNFVLQVAKTLAGIPRDEKLNQSNFQKMYQMFNETTSQVRKYQQNMSHLEEKLLLTTKISKNFETRLQDIESKVTQTLIPYYISVKKGSVVTNERDQALQLQVLNSRFKALEAKSIHLSINFFSLNKTLHEVLTMCHNASTSVSELNATIPKWIKHSLPDIQLLQKGLTEFVEPIIQIKTQAALSNLTCCIDRSLPGSLANVVKSQKQVKSLPKKINALKKPTVNLTTVLIGRTQRNTDNIIYPEEYSSCSRHPCQNGGTCINGRTSFTCACRHPFTGDNCTIKLVEENALAPDFSKGSYRYAPMVAFFASHTYGMTIPGPILFNNLDVNYGASYTPRTGKFRIPYLGVYVFKYTIESFSAHISGFLVVDGIDKLAFESENINSEIHCDRVLTGDALLELNYGQEVWLRLAKGTIPAKFPPVTTFSGYLLYRT"}, "B2": {"name": "Multimerin-1 (MMRN1): T216A (protein)", "parent chain": "B1 parent chain"}, "B3": {"name": "Multimerin-1 (MMRN1): FUT10/11 DKO (protein)", "parent chain": "B1 parent chain"}, "B4": {"name": "Multimerin-1 (MMRN1): T265A (protein)", "parent chain": "B1 parent chain"}, "B5": {"name": "Multimerin-1 (MMRN1): T1055A (protein)", "parent chain": "B1 parent chain"}, "B6": {"name": "Multimerin-1 (MMRN1): T216A/T265A (protein)", "parent chain": "B1 parent chain"}, "B7": {"name": "GFP–FUT11 (POFUT4) (Homo sapiens) (protein)", "chain": "AGGEAEWAEPWDGAVFRPPSALGAVGVTRSSGTPRPGREEAGDLPVLLWWSPGLFPHFPGDSERIECARGACVASRNRRALRDSRTRALLFYGTDFRASAAPLPRLAHQSWALLHEESPLNNFLLSHGPGIRLFNLTSTFSRHSDYPLSLQWLPGTAYLRRPVPPPMERAEWRRRGYAPLLYLQSHCDVPADRDRYVRELMRHIPVDSYGKCLQNRELPTARLQDTATATTEDPELLAFLSRYKFHLALENAICNDYMTEKLWRPMHLGAVPVYRGSPSVRDWMPNNHSVILIDDFESPQKLAEFIDFLDKNDEEYMKYLAYKQPGGITNQFLLDSLKHREWGVNDPLLPNYLNGFECFVCDYELARLDAEKAHAASPGDSPVFEPHIAQPSHMDCPVPTPGFGNVEEIPENDSWKEMWLQDYWQGLDQGEALTAMIHNNETEQTKFWDYLHEIFMKRQHL"}}, "key": {"[1]": {"molecular_target": "human MMRN1 N-terminal EMI-Myc-His6 (first 290 amino acids of Multimerin-1, wild type) (human) (UniProt Q13201)"}, "[2]": {"molecular_target": "T1, GFP–FUT8 (Homo sapiens, UniProt Q9BYC5)", "T1 sequence (Q9BYC5 31-575 limits assumed)": "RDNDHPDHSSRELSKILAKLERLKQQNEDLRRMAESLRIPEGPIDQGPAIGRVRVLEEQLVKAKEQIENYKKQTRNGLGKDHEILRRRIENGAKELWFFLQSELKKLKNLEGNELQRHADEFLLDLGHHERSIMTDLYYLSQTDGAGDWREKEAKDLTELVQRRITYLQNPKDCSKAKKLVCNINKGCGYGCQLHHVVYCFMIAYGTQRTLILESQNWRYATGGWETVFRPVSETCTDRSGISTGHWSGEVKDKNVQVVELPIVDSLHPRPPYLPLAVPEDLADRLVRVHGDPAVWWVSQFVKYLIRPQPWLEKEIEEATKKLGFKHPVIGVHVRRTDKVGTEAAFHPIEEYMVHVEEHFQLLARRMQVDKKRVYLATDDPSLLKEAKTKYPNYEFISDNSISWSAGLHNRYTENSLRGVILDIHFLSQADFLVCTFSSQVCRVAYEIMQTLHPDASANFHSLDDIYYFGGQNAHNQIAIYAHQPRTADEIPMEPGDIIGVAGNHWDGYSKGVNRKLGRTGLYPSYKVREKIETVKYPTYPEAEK", "test": "nano LC-MS/MS of N-glycan fucosylation on EMI", "type": "biochemical", "details": "donor; 100 μM with 0.5 μM non-fucosylated MMRN1 N-terminal EMI, 50 mM HEPES pH 7, 37 °C, 30 min; positive control"}, "[3]": {"molecular_target": "T2, GFP–FUT10 (POFUT3) (Homo sapiens, UniProt Q6P4F1)", "T2 sequence (Q6P4F1 34-479 limits assumed)": "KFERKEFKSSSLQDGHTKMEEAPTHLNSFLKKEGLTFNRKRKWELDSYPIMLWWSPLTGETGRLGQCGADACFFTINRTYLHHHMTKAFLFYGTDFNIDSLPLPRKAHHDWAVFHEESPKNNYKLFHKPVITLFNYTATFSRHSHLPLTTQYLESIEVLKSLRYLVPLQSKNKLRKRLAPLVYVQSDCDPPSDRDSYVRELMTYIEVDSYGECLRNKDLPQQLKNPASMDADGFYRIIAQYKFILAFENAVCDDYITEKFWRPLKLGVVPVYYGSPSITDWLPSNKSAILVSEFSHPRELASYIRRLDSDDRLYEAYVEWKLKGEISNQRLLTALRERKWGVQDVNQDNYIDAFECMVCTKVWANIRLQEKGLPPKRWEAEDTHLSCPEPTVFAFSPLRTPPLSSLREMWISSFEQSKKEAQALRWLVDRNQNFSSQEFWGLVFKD", "test": "nano LC-MS/MS of O-fucosylated EMI peptides", "type": "biochemical", "details": "donor; 100 μM with 0.5 μM non-fucosylated MMRN1 N-terminal EMI, 50 mM HEPES pH 7, 37 °C"}, "[4]": {"test": "anti-Myc western blot of medium, normalised to IgG"}, "[5]": {"test": "western blot of cell lysates", "details": "glycan lost; control: wild type full-length MMRN1"}, "[6]": {"substrate": "C[C@@H]1O[C@H](OP(=O)(O)OP(=O)(O)OC[C@H]2O[C@@H](n3cnc4c(=O)[nH]c(N)nc43)[C@H](O)[C@@H]2O)[C@@H](O)[C@H](O)[C@@H]1O", "test": "nano LC-MS/MS glycopeptide quantification, Michaelis-Menten fit", "type": "biochemical, Homo sapiens", "details": "donor, 20 μM non-fucosylated MMRN1 N-terminal EMI, 0.3 mM MnCl2, 50 mM HEPES pH 7, 37 °C, 15 min, same value for T216 and T265 sites"}, "[7]": {"details": "glycan lost, control: wild type full-length MMRN1"}}, "data": [{"molecule": "GFP–FUT11 (human FUT11 lacking the transmembrane domain, from pGEn2-GFP-hFUT11) (from UniProt Q495W5 1-492) (enzyme)", "values": [{"measurement": "Km for non-fucosylated N-terminal EMI at the T216 site; O-fucosylation kinetics by LC-MS/MS, Michaelis–Menten fit, 50 nM enzyme, 100 μM GDP-fucose, 0.3 mM MnCl2, 37 °C, 15 min", "setting": "[1]", "result": 6.74, "unit": "µM"}]}, {"molecule": "C[C@@H]1O[C@H](OP(=O)(O)OP(=O)(O)OC[C@H]2O[C@@H](n3cnc4c(=O)[nH]c(N)nc43)[C@H](O)[C@@H]2O)[C@@H](O)[C@H](O)[C@@H]1O", "note": "[GDP-fucose]", "values": [{"measurement": "nano LC-MS/MS of N-glycan fucosylation on EMI", "setting": "[2]", "result": "GFP–FUT8 was used as a positive control, and it robustly added fucose to N-glycans"}, {"measurement": "nano LC-MS/MS of O-fucosylated EMI peptides", "setting": "[3]", "result": "Both GFP–FUT10 and GFP–FUT11 can independently add fucose to EMI substrates"}]}, {"molecule": "B1", "values": [{"measurement": "expression_or_secretion, other: % reduction vs WT", "setting": "[4]; glycan lost, control: N-terminal EMI in WT HEK293T cells", "result": "decreases"}]}, {"molecule": "B2", "values": [{"measurement": "expression_or_secretion", "setting": "[5]", "result": "no change"}, {"measurement": "expression_or_secretion, other: % reduction vs WT", "setting": "[4]; [7]", "result": "decreases"}]}, {"molecule": "B3", "values": [{"measurement": "expression_or_secretion, other: % reduction vs WT", "setting": "[4]; glycan changed form, control: N-terminal EMI in WT HEK293T cells", "result": "decreases"}]}, {"molecule": "B4", "values": [{"measurement": "expression_or_secretion", "setting": "[5]", "result": "no change"}, {"measurement": "expression_or_secretion, other: % reduction vs WT", "setting": "[4]; [7]", "result": "no change"}]}, {"molecule": "B5", "values": [{"measurement": "expression_or_secretion", "setting": "[5]", "result": "no change"}, {"measurement": "expression_or_secretion, other: % reduction vs WT", "setting": "[4]; [7]", "result": "abolishes"}]}, {"molecule": "B6", "values": [{"measurement": "expression_or_secretion", "setting": "[5]", "result": "no change"}, {"measurement": "expression_or_secretion, other: % reduction vs WT", "setting": "[4]; [7]", "result": "decreases"}]}, {"molecule": "B7", "values": [{"measurement": "Km", "setting": "[6]", "result": 5, "unit": "µM"}]}]}
